Assay results taken from US9605283B2, “Microorganism modified for the production of 1,3-propanediol” (INSTITUT NATIONAL DES SCIENCES APPLIQUÉES, priority 2012, dated 2017).
Changes are numbered by the printed parent chain. Names and notes keep the numbering of the source.

Assays:
Type in all cases: biochemical
[1] = OHB decarboxylase activity (coupled to YqhD, NADPH); details: for OHB decarboxylase activity (in words): wild-type enzymes; for Effect of mutation on activity and/or specificity for OHB (in words): versus wild-type enzyme
Experimental: (§1) OHB decarboxylase activity was assayed by coupling the decarboxylase activity to the NADPH-dependent reduction of the released 3-hydroxypropanal by purified aldehyde reductase, YqhD, from E. coli. The decarboxylation of pyruvate was coupled to the NADH-dependent reduction of acetaldehyde catalysed by yeast alcohol dehydrogenase. Branched-chain alpha-ketoacid decarboxylase activity was measured on 4-methyl-2-oxovaleric acid by coupling to the NADH-dependent reduction of 3-methylbutanal catalysed by horse liver alcohol dehydrogenase. […] Reactions were started by adding 20 mM 2-oxo-4-hydroxybutyrate (OHB), 10 mM 4-methyl-2-oxovaleric acid (MOV), or 5 mM pyruvate.

[2] = Branched-chain alpha-ketoacid decarboxylase activity (coupled to horse liver alcohol dehydrogenase)
Experimental: as §1

[3] = Lactate dehydrogenase activity (natural substrate); details: for Max. specific activity, Natural substrate: natural substrate (L)-lactate, Table 2
[4] = DHB dehydrogenase activity of membrane-associated enzyme (DHB-dependent reduction of DCIP)
Experimental: Activity of the membrane-associated DHB dehydrogenase (Ec-LldD) was assayed by following the DHB-dependent reduction of 2,6-dichloroindophenol (DCIP). (L)-2,4-dihydroxybutyrate+DCIPox→2-oxo-4-hydroxybutyrate+DCIPred Reaction scheme 2:
Reactions were started by adding 20 mM (L)-2,4-dihydroxybutyrate (Rhodia).

[5] = Pyruvate decarboxylase activity (coupled to yeast alcohol dehydrogenase)
Experimental: OHB decarboxylase activity was assayed by coupling the decarboxylase activity to the NADPH-dependent reduction of the released 3-hydroxypropanal by purified aldehyde reductase, YqhD, from E. coli. The decarboxylation of pyruvate was coupled to the NADH-dependent reduction of acetaldehyde catalysed by yeast alcohol dehydrogenase. Branched-chain alpha-ketoacid decarboxylase activity was measured on 4-methyl-2-oxovaleric acid by coupling to the NADH-dependent reduction of 3-methylbutanal catalysed by horse liver alcohol dehydrogenase. […]

[6] = DHB dehydrogenase activity of cytosolic enzymes (DHB-dependent reduction of NAD+)
Experimental: Activity of the cytosolic DHB dehydrogenases (Ec-Mdh, Bs-Mdh, Ll-LdhA) was assayed by following the DHB-dependent reduction of NAD^+.
The reaction mixture contained 60 mM Hepes (pH 8), 50 mM potassium chloride, 5 mM MgCl2, 10 mM NAD, (optionally, 5 mM fructose-1,6-bisphosphate (F16bP)) (all products from Sigma), and appropriate amounts of purified enzyme or cell extract. Reactions were started by adding 50 mM (L)-2,4-dihydroxybutyrate (Rhodia).
All enzymatic assays were carried out at 37° C. in 96-well flat bottomed microtiter plates in a final volume of 250 μL. The reactions were followed by the characteristic absorption of NADH at 340 nm (εNADH=6.22 mM^−1 cm^−1) or the absorbtion of DCIP at 655 nm (εDCIP=5.9 mM^−1 cm^−1) in a microplate reader (BioRad 680XR).

[7] = when not saturated, activity estimated at 20 mM substrate, Table 8
[8] = activity measured at 20 mM OHB, Table 10
[9] = activity measured at 10 mM MOV (KdcA mutants), Table 10
[10] = natural substrate pyruvate, Table 8
[11] = activity measured at 50 mM pyruvate (Pdc mutants), Table 10

B1: Ll-KdcA: branched-chain alpha-ketoacid decarboxylase from L. lactis, SEQ ID No. 130 (protein, listed as Lactococcus lactis)
chain: MYTVGDYLLDRLHELGIEEIFGVPGDYNLQFLDQIISREDMKWIGNANELNASYMADGYARTKKAAAFLTTFGVGELSAINGLAGSYAENLPVVEIVGSPTSKVQNDGKFVHHTLADGDFKHFMKMHEPVTAARTLLTAENATYEIDRVLSQLLKERKPVYINLPVDVAAAKAEKPALSLEKESSTTNTTEQVILSKIEESLKNAQKPVVIAGHEVISFGLEKTVTQFVSETKLPITTLNFGKSAVDESLPSFLGIYNGKLSEISLKNFVESADFILMLGVKLTDSSTGAFTHHLDENKMISLNIDEGIIFNKVVEDFDFRAVVSSLSELKGIEYEGQYIDKQYEEFIPSSAPLSQDRLWQAVESLTQSNETIVAEQGTSFFGASTIFLKSNSRFIGQPLWGSIGYTFPAALGSQIADKESRHLLFIGDGSLQLTVQELGLSIREKLNPICFIINNDGYTVEREIHGPTQSYNDIPMWNYSKLPETFGATEDRVVSKIVRTENEFVSVMKEAQADVNRMYWIELVLEKEDAPKLLKKMGKLFAEQNK
For B1, the “Max. specific activity, OHB” value [1, 7] was 0.08 µmol/mg/min, the “OHB decarboxylase activity (in words)” value [1] was “significant OHB decarboxylase activity” and the “Max. specific activity, Natural substrate” value ([2]; natural substrate 4-methyl-2-oxovaleric, Table 8) was 4 µmol/mg/min.

B2: Ll-KdcA V461I: L. lactis KdcA mutant V461I, SEQ ID No. 198 (protein, listed as Lactococcus lactis)
chain: B1 chain with V461I
For B2, the “Max. specific activity, OHB” value [1, 8] was 0.24 µmol/mg/min, the “Effect of mutation on activity and/or specificity for OHB (in words)” value (“Effect of mutation” for short) [1] was “increased activity and/or specificity for OHB” and the “Max. specific activity, Natural substrate” value [2, 9] was 2.76 µmol/mg/min.

B3: Ll-KdcA G402S: L. lactis KdcA mutant G402S, SEQ ID No. 196 (protein, listed as Lactococcus lactis)
chain: B1 chain with G402S
With B3 the “Max. specific activity, OHB” value [1, 8] was 0.09 µmol/mg/min, the “Effect of mutation” value [1] was “increased activity and/or specificity for OHB” and the “Max. specific activity, Natural substrate” value [2, 9] was 3.1 µmol/mg/min.

B4: Ec-LldD: membrane associated (L)-lactate dehydrogenase of E. coli, SEQ ID No. 122 (protein, listed as Escherichia coli)
chain: MIISAASDYRAAAQRILPPFLFHYMDGGAYSEYTLRRNVEDLSEVALRQRILKNMSDLSLETTLFNEKLSMPVALAPVGLCGMYARRGEVQAAKAADAHGIPFTLSTVSVCPIEEVAPAIKRPMWFQLYVLRDRGFMRNALERAKAAGCSTLVFTVDMPTPGARYRDAHSGMSGPNAAMRRYLQAVTHPQWAWDVGLNGRPHDLGNISAYLGKPTGLEDYIGWLGNNFDPSISWKDLEWIRDFWDGPMVIKGILDPEDARDAVRFGADGIVVSNHGGRQLDGVLSSARALPAIADAVKGDIAILADSGIRNGLDVVRMIALGADTVLLGRAFLYALATAGQAGVANLLNLIEKEMKVAMTLTGAKSISEITQDSLVQGLGKELPAALAPMAKGNAA
With B4 the “Max. specific activity, lactate” value ([3]; E. coli LldD, Table 6) was 6.22 µmol/mg/min, the “Max. specific activity, Natural substrate” value [3] was 6.22 µmol/mg/min and the Specificity ([4]; (Vmax/Km)DHB/(Vmax/Km)nat. substrate, natural substrate lactate) was 0.006. For the same molecule, the “Max. specific activity, DHB” value ([4]; DCIP assay, Table 2) was 0.37 µmol/mg/min, the “Max. specific activity, DHB” value ([4]; E. coli LldD, Table 6) was 0.37 µmol/mg/min and the “DHB dehydrogenase activity (in words)” value ([4]; membrane-associated enzyme) was “have DHB dehydrogenase activity”.

B5: Zm-Pdc: pyruvate decarboxylase of Zymomonas mobilis, SEQ ID No. 128 (protein, listed as Zymomonas mobilis)
chain: MSYTVGTYLAERLVQIGLKHHFAVAGDYNLVLLDNLLLNKNMEQVYCCNELNCGFSAEGYARAKGAAAAVVTYSVGALSAFDAIGGAYAENLPVILISGAPNNNDHAAGHVLHHALGKTDYHYQLEMAKNITAAAEAIYTPEEAPAKIDHVIKTALREKKPVYLEIACNIASMPCAAPGPASALFNDEASDEASLNAAVEETLKFIANRDKVAVLVGSKLRAAGAEEAAVKFADALGGAVATMAAAKSFFPEENPHYIGTSWGEVSYPGVEKTMKEADAVIALAPVFNDYSTTGWTDIPDPKKLVLAEPRSVVVNGIRFPSVHLKDYLTRLAQKVSKKTGALDFFKSLNAGELKKAAPADPSAPLVNAEIARQVEALLTPNTTVIAETGDSWFNAQRMKLPNGARVEYEMQWGHIGWSVPAAFGYAVGAPERRNILMVGDGSFQLTAQEVAQMVRLKLPVIIFLINNYGYTIEVMIHDGPYNNIKNWDYAGLMEVFNGNGGYDSGAGKGLKAKTGGELAEAIKVALANTDGPTLIECFIGREDCTEELVKWGKRVAAANSRKPVNKLL
In the case of B5, the “Max. specific activity, OHB” value [1, 7] is reported as 0.052 µmol/mg/min, the “OHB decarboxylase activity (in words)” value [1] is reported as “significant OHB decarboxylase activity” and the “Max. specific activity, Natural substrate” value [5, 10] is reported as 65 µmol/mg/min.

B6: Zm-Pdc G413N: Z. mobilis pyruvate decarboxylase mutant G413N, SEQ ID No. 194 (protein, listed as Zymomonas mobilis)
chain: B5 chain with G413N
For B6, the “Max. specific activity, OHB” value [1, 8] was 0.04 µmol/mg/min, the “Effect of mutation” value [1] was “increased activity and/or specificity for OHB” and the “Max. specific activity, Natural substrate” value [5, 11] was 0.1 µmol/mg/min.

B7: Zm-Pdc W392Q: Z. mobilis pyruvate decarboxylase mutant W392Q, SEQ ID No. 190 (protein, listed as Zymomonas mobilis)
chain: B5 chain with W392Q
In the case of B7, the “Max. specific activity, OHB” value [1, 8] is reported as 0.19 µmol/mg/min, the “Effect of mutation” value [1] is reported as “increased activity and/or specificity for OHB” and the “Max. specific activity, Natural substrate” value [5, 11] is reported as 1.39 µmol/mg/min.

B8: Zm-Pdc W392L: Z. mobilis pyruvate decarboxylase mutant W392L, SEQ ID No. 192 (protein, listed as Zymomonas mobilis)
chain: B5 chain with W392L
With B8 the “Max. specific activity, OHB” value [1, 8] was 0.04 µmol/mg/min, the “Effect of mutation” value [1] was “increased activity and/or specificity for OHB” and the “Max. specific activity, Natural substrate” value [5, 11] was 0.09 µmol/mg/min.

B9: Ll-LdhA: (L)-lactate dehydrogenase of Lactococcus lactis, cytosolic, SEQ ID No. 120 (protein, listed as Lactococcus lactis)
chain: MADKQRKKVILVGDGAVGSSYAFALVNQGIAQELGIVDLFKEKTQGDAEDLSHALAFTSPKKIYSADYSDASDADLVVLTSGAPQKPGETRLDLVEKNLRITKDVVTKIVASGFKGIFLVAANPVDILTYATWKFSGFPKNRVVGSGTSLDTARFRQALAEKVDVDARSIHAYIMGEHGDSEFAVWSHANVAGVKLEQWFQENDYLNEAEIVELFESVRDAAYSIIAKKGATFYGVAVALARITKAILDDEHAVLPVSVFQDGQYGVSDCYLGQPAVVGAEGVVNPIHIPLNDAEMQKMEASGAQLKAIIDEAFAKEEFASAVKN
For B9, the “DHB dehydrogenase activity (in words)” value ([6]; cytosolic wild-type enzymes) was “have DHB dehydrogenase activity”, the “Max. specific activity, DHB” value ([6]; when not saturated, activity estimated at 50 mM substrate, Table 2) was 1 µmol/mg/min and the “Max. specific activity, Natural substrate” value [3] was 8.8 µmol/mg/min.

B10: Sc-Pdc1: pyruvate decarboxylase of Saccharomyces cerevisiae, SEQ ID No. 208 (protein, listed as Saccharomyces cerevisiae)
chain: MSEITLGKYLFERLKQVNVNTVFGLPGDFNLSLLDKIYEVEGMRWAGNANELNAAYAADGYARIKGMSCIITTFGVGELSALNGIAGSYAEHVGVLHVVGVPSISAQAKQLLLHHTLGNGDFTVFHRMSANISETTAMITDIATAPAEIDRCIRTTYVTQRPVYLGLPANLVDLNVPAKLLQTPIDMSLKPNDAESEKEVIDTILALVKDAKNPVILADACCSRHDVKAETKKLIDLTQFPAFVTPMGKGSIDEQHPRYGGVYVGTLSKPEVKEAVESADLILSVGALLSDFNTGSFSYSYKTKNIVEFHSDHMKIRNATFPGVQMKFVLQKLLTTIADAAKGYKPVAVPARTPANAAVPASTPLKQEWMWNQLGNFLQEGDVVIAETGTSAFGINQTTFPNNTYGISQVLWGSIGFTTGATLGAAFAAEEIDPKKRVILFIGDGSLQLTVQEISTMIRWGLKPYLFVLNNDGYTIEKLIHGPKAQYNEIQGWDHLSLLPTFGAKDYETHRVATTGEWDKLTQDKSFNDNSKIRMIEIMLPVFDAPQNLVEQAKLTAATNAKQ
With B10 the “Max. specific activity, OHB” value [1, 7] was 0.055 µmol/mg/min, the “OHB decarboxylase activity (in words)” value [1] was “significant OHB decarboxylase activity” and the “Max. specific activity, Natural substrate” value [5, 10] was 1.3 µmol/mg/min.
